Experimental data published in patent CN113603773A (FIRST HOSPITAL CHINA MEDICAL UNIV, dated 2021).

Experiments:
人源淀粉样蛋白42 Aβ42 单体 = target: T1, 人源淀粉样蛋白42 Aβ42 单体 (human, UniProt P05067 672-713); assay: ELISA, Aβ coated at 5 μg/mL, 7B8 diluted 1:20,000, OD450
T1 construct: domain: Aβ42; Monomer preparation; also called Aβ42 mon

人源淀粉样蛋白42 Aβ42 寡聚体 = target: T2, 人源淀粉样蛋白42 Aβ42 寡聚体 (human, UniProt P05067 672-713); assay: dot blot on nitrocellulose, ECL
T2 construct: domain: Aβ42; Oligomer preparation; also called Aβ42 oli

人源淀粉样蛋白42 Aβ42 纤维体 = target: T3, 人源淀粉样蛋白42 Aβ42 纤维体 (human, UniProt P05067 672-713); assay: dot blot on nitrocellulose, ECL
T3 construct: domain: Aβ42; Fibril preparation; also called Aβ42 fib

Measured: binding result

T1 sequence (P05067 672-713 limits assumed): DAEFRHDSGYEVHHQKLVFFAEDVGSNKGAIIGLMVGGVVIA
T2 sequence (P05067 672-713 limits assumed): as above
T3 sequence (P05067 672-713 limits assumed): as above

B1: 靶向淀粉样蛋白的单克隆抗体7B8 (antibody, mouse IgG1, V domains shown)
VH: QVQLQQPGAELVKPGASVKLSCKTSDYSFTSYWMHWVKQRPGQGLEWIGEINPSNGRKKYNEKFKSKATLTVDTSSSTAYMQLSSLTSEDSAVYYCAREGRGYWGQGTTLTVSS
VL: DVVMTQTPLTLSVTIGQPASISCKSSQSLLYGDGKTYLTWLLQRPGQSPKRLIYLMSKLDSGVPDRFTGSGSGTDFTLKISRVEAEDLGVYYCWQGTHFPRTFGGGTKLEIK
notes: also called 抗Aβ3-10的单克隆抗体
binds: all assays above
